Where a chain is given by its changes, count along the chain named.
How the values were obtained:
[1] = target: T1, human WISE N112A (human, UniProt Q6X4U4 24-206); assay: capture ELISA, WISE mutant supernatant (FIG. 28)
T1 construct: Alanine mutant of loop 2, used as supernatant of transiently transfected mammalian cells
T1 chain: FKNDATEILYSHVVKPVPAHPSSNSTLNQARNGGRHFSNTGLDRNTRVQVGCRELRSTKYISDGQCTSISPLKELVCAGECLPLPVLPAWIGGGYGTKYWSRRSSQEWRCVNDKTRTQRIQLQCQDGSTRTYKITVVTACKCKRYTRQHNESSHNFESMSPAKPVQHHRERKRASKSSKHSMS
Protocol: (§1) Relative capture of individual WISE mutant proteins or wild type proteins by either neutralizing antibodies or non-neutralizing antibodies was compared to assess whether any of these single amino acid changes affects the binding of an antibody to WISE protein. The bound WISE proteins were then detected using HRP-conjugated affinity-purified polyclonal antibody against WISE.
(§2) Purified anti-WISE antibodies (0.5 ug/ml) were added onto high-binding ELISA plates pre-coated with 1 ug/ml of goat anti-mouse IgG Fc (Pierce). Plates were incubated for 1 hour in room temperature. Plates were then washed 4× with Wash Buffer. Subsequently alanine scanned WISE loop-2 mutant supernatants from transient transfection cultures (100× diluted) were added and incubated for 1 hour in room temperature. After 4× wash, rabbit anti-WISE Pab-biotin (50 ng/ml)+NeutrAvidin-HRP (Pierce, Cat #31001) were added onto the plates and incubated for 1 hour in room temperature. Plates were again washed 4× with Wash Buffer. Binding was analyzed using 1-Step Ultra TMB-ELISA substrate (Pierce; Cat #34028) according to the manufacturer's instructions.

[2] = target: T2, human WISE L110A (human, UniProt Q6X4U4 24-206); assay: capture ELISA, WISE mutant supernatant (FIG. 28)
T2 construct: Alanine mutant of loop 2, used as supernatant of transiently transfected mammalian cells
T2 chain: T1 chain with L87A, A89N
Protocol: as §1, §2

[3] = target: T3, human WISE G117A (human, UniProt Q6X4U4 24-206); assay: capture ELISA, WISE mutant supernatant (FIG. 28)
T3 construct: Alanine mutant of loop 2, used as supernatant of transiently transfected mammalian cells
T3 chain: T1 chain with A89N, G94A
Protocol: as §1, §2

[4] = target: T4, human WISE (human, UniProt Q6X4U4 24-206); assay: capture ELISA binding profile (FIG. 28)
T4 construct: Recombinant protein secreted from mammalian cells; also called hWISE; huWISE
T4 sequence: T1 chain with A89N
Protocol: as §1, §2

[5] = target: T5, human WISE K121A (human, UniProt Q6X4U4 24-206); assay: capture ELISA, WISE mutant supernatant (FIG. 22)
T5 construct: Alanine mutant of loop 2, used as supernatant of transiently transfected mammalian cells
T5 chain: T1 chain with A89N, K98A
Protocol: as §1, §2

[6] = target: T6, human WISE I114A (human, UniProt Q6X4U4 24-206); assay: capture ELISA, WISE mutant supernatant (FIG. 22)
T6 construct: Alanine mutant of loop 2, used as supernatant of transiently transfected mammalian cells
T6 chain: T1 chain with A89N, I91A
Protocol: as §1, §2

[7] = target: T4, human WISE; assay: capture ELISA binding profile (FIG. 22)
Protocol: as §1, §2

[8] = target: T1, human WISE N112A; assay: capture ELISA, WISE mutant supernatant (FIG. 27)
Protocol: as §1, §2

[9] = target: T2, human WISE L110A; assay: capture ELISA, WISE mutant supernatant (FIG. 27)
Protocol: as §1, §2

[10] = target: T3, human WISE G117A; assay: capture ELISA, WISE mutant supernatant (FIG. 27)
Protocol: as §1, §2

B1: Ab-AF (antibody, V domains shown)
VH: QIQLVQSGPELKKPGETVKISCKASGYTFTDYSMHWVKQAPGKGLKWMGWINTETGEPTYADDFKGRFAFSLETSASTACLEINNLKNEDTATYFCSLTGYWGQGTSVTVSS
VL: DIQMTQSPASLSASVGETVTITCGASENIYGALNWYQRKQGKSPQVLIYGATNLADGMSSRFSGSGSGRQYSLKISSLHPDDVAMYYCQNVFSSPLTFGAGTKLELK
notes: Murine monoclonal antibody purified from hybridoma; also called WISE Loop 2 Mab (Ab-AF)
binding result [1]: binds | binding result [2]: binds | binding result [3]: binds | binding result [4]: binds

B2: Ab-AG (antibody, V domains shown)
VH: B1 VH with D62A, C80Y, E82Q, S97T
VL: B1 VL with V46L, Y49F, K74E, M85T, V91L, S93N, E105D
notes: Murine anti-WISE monoclonal antibody; also called WISE Loop 2 Mab (Ab-AG)
binding result [5]: binds | binding result [6]: binds | binding result [7]: binds

B3: Ab-AJ (antibody, V domains shown)
VH: EVQLQQSGAELVRSGASVKLSCTASGFNIKDYYMHWVKQRPEQGLEWIGWIDPENGDTEYAPKFQGKATMTADTSSNTAYLQLSSLTSEDTAVYYCNFYDVYSEGALDYWGQGTSVTVSS
VL: DIVMSQSPSSLAVSAGEKVTMSCKSSQSLLNSRTRKNYLAWYQQKPGQSPKLLIYWASTRESGVPDRFTGSGSGTDFTLTISSVQAEDLAVYYCKQSYNLPTFGGGTKLEIK
notes: Murine anti-WISE monoclonal antibody; also called WISE Loop 2 Mab (Ab-AJ)
absorbance [8]: ≤ 1.5 absorbance | absorbance [9]: ≤ 1.5 absorbance | absorbance [10]: ≤ 1.5 absorbance

Source: US20120288507A1 (Amgen, published 2012)
